In the nanobody polyreactivity screen of Harvey et al. (2022):

Assay: yeast display, Sf9 membrane polyspecificity reagent, FACS + sequencing; frameworks hold sequencing errors
Procedure, shortened: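 Galactose-induced (36–48 hours) yeast carrying a synthetic nanobody display library were exposed to 10% biotinylated, detergent-solubilized Sf9 membrane reagent at 4 °C for 1 hour. FACS followed streptavidin microbead enrichment, using low and high (top ~1%) gates for expression (anti-HA) and reagent binding (streptavidin). Colony PCR, MiSeq 2 × 250 sequencing and CDR-length filtering followed. Labels for polyreactivity reflect the gate of origin.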

Sequence	polyreactivity (PSR sort gate)
QVQLVESGGGLVQAGGSLRLSCAASGSTFYKYAMGWYRPAPGKERELVAAISRGGSTYYADSVKGRFTISRDNAKNTVYLQMNSLKPEDTAVYYCAALYGLGRPQDSTFLFDYWGQGTQVTVSS	low polyreactivity
QVQLVESGGGLVQAGGSLRLSCAASGSTFYLNAMGWYRQAPGKERELVAAINGSGGSTYADSVKGRFTISRDNAKNTVYLQMNSLKPEDTAVYYCAADGTGYPGYSYPGNDYDYWGQGTQVTVSS	low polyreactivity
QVQLVESGGGLVQAGGSLRLSCAASGSTFYLNAMGWYRQAPGKERELVAAITVSGGSTYYADSVKGRFTISRDNAKNTVYLQMNSLKPEDTAVYYCARELLSPTYPRWYYYWGQGTQVTVSS	low polyreactivity
QVQLVESGGGLVQAGGSLRLSCAASGSTFYLNDMGWYRQAPGKERELVAAIDWSGGSTYYADSVKGRFTISRDNAKNTVYLQMNSLNPEDTAVYYCAARLVYEWRRLDYFIAWDYWGQGTQVTVSS	low polyreactivity
QVQLVESGGGLVQAGGSLRLSCAASGSTFYLYAMGWYRQAPGKERELVADISWDGDSTYYADSVKGRFTISRDNAKNTVYLQMNSLKPEDTAVYYCAADYFYYYEQYLWYTYDYWGQGTQVTVSS	high polyreactivity
QVQLVESGGGLVQAGGSLRLSCAASGSTFYLYAMGWYRQAPGKERELVASITYSGASTYYADSVKGRFTISRDNAKNTVYLQMNSQKPEDTAVYYCAADQRGWFAVGSQRKYNYWGQGTQVTVSS	low polyreactivity
QVQLVESGGGLVQAGGSLRLSCAASGSTFYLYGMGWYRQAPGKERELVAAITYSGGSTYYADSVKGRFTISRDNAKNTVYLQMNSLKPEDTAVYYCNARSQWRSSRFYYWGQGTQVTVPS	high polyreactivity
QVQLVESGGGLVQAGGSLRLSCAASGSTFYNAMGWYIQAPGKERELVAGISRNGGSTRYADSVKGRFTISRDNAKNTVYLQSHSQKPEDTAVSYCAAGYYDYGWDYANDYWGQGTQVTVSS	low polyreactivity
QVQLVESGGGLVQAGGSLRLSCAASGSTFYNYAMGWCRLAPGKERELVAATSSGGSTNYADSVKGRFTISRDNAKNTVFLQMISLKPEDNAVYYCARRHRVYPSRIGHDYWGQGTQVTVSS	low polyreactivity
QVQLVESGGGLVQAGGSLRLSCAASGSTFYNYAMGWYRQAPGKERELVAAISSGGGITYYADSVKGRFTISRDNAKNTVYLQMNSLKPEDTAVYYCNARRKYLGYNYWGQGSQVTVSS	high polyreactivity
QVQLVESGGGLVQAGGSLRLSCAASGSTFYNYAMGWYRQAPGKERELVAAISSGGGITYYADSVKGRFTISRDNAKNTVYLQMNSLKPEDTAVYYCNVVNYYPKGNNRAQYWFNYWGQGTQVNVSS	high polyreactivity
QVQLVESGGGLVQAGGSLRLSCAASGSTFYPNAMGWYRQAPGKEREFVAAITWSGGRTYYADSVKGRFTISRDNAKNTVYLLMNSLKPEDTAVYYCAVGGNSRRYWGQGTQVTVSS	high polyreactivity
QVQLVESGGGLVQAGGSLRLSCAASGSTFYPNAMGWYRQAPGKERELVAAISRGTRTKYADSVKGRFTISRDNAKNTVYLQMNSLKPEDTAVYYCAKRYYGSPQLRYYYWGQGTQVTVSS	high polyreactivity
QVQLVESGGGLVQAGGSLRLSCAASGSTFYPNAMGWYRQAPGKERELVAAISWSGGRTYYADSVKGRFTISRDNAKNTVYLQMNSLKPEDTAVYYCNAARYPSSWYYKLDYWGQGTQVTVSS	high polyreactivity
QVQLVESGGGLVQAGGSLRLSCAASGSTFYPYAMGGYRQAPGKERELVARITQNGGSTYYADSVKGRFKISRDNAKNPVYLQMNSLKPEDTAVYYCADRWISVLSYGKYDYCGQGTQVTVSS	high polyreactivity
QVQLVESGGGLVQAGGSLRLSCAASGSTFYPYAMGWYRQAPGKERELVAAISSGGSTNYADSVKGRFTISRDNAKNTVYLQMNSLKPEDTAVYYCAAEDWSLYDYGDRLWYSPYYYWGQGTQVTVSS	high polyreactivity
QVQLVESGGGLVQAGGSLRLSCAASGSTFYPYAMGWYRQAPGKERELVAAISSGGSTSYADSVKGRFTISRDNAKNTFYLQMNSLKPEDTAVYYCNASSPGAVPVYDYDYWGQGTQVTVSS	low polyreactivity
QVQLVESGGGLVQAGGSLRLSCAASGSTFYPYAMGWYRQAPGKERELVAAISSSGGSTYYADSVKGRFTISRDNAKNTVYLQMNSLKPEDTAVYYCNADVHSQYDYWGQGTQVTVSS	low polyreactivity
QVQLVESGGGLVQAGGSLRLSCAASGSTFYPYAMGWYRQATGKERELVAAISYSGGSKYYADSVKGRFTISRDNAKNTVYLQMNSLKPEDTAVYYCAAYYRVYGASYDYWGQVTQVTVSS	high polyreactivity
QVQLVESGGGLVQAGGSLRLSCAASGSTFYPYTMGWYRQAPGKERELVASISTTGGSTNYADSVKGRFTISRDNAKNTVYLQMNSLKPEDTAVYYCAARSNYTRRLYYYYWGLGTQVTVSS	high polyreactivity
QVQLVESGGGLVQAGGSLRLSCAASGSTFYQNAMGWYRQAPGKERELVAAISGGSDTYYADSVKGRFTISRDNAKNTVYLQMNSLKPEDTAFYYCAADVASSEGKSWTLKDEYDYWGQGTQVTVSS	low polyreactivity
QVQLVESGGGLVQAGGSLRLSCAASGSTFYQSVMGWYRQAPGKERELVADITNGGSTYYADSVKGRFTISRDNAKNTVYLQMNSLKPEDTAVYYCAADGGYYWYTYWYGGLYYWGQGTQVTVSS	high polyreactivity

Sequence	polyreactivity (PSR sort gate)
QVQLVESGGGLVQAGGSLRLSCAASGSTFYRNAMGWYRQAPGKEREFVAAISFRGGGTYADSVKGRFTISRDNAKNTVYLQMNSLKPEDTAVYYCAADYSVYWLDYGYWGQGTQVTVSS	low polyreactivity
QVQLVESGGGLVQAGGSLRLSCAASGSTFYRNAMGWYRQAPGKERELVAAISRGGSTYYADSVKGRFTISRDNAKNTVYLQMNSLKPEDTAVYYCNTDVNYAGYGWYYYWGQGTQVTVSS	high polyreactivity
QVQLVESGGGLVQAGGSLRLSCAASGSTFYRNAMGWYRQAPGKERELVAAITSGGSSTYYADSVKVRFTISRDNAKNTVYLQMNSLKPEDTAVYYCAAEPGIYYYWGQGTQVTVSS	low polyreactivity
QVQLVESGGGLVQAGGSLRLSCAASGSTFYRNAMGWYRQAPGKERELVATITFNGGSTYYADSVKGRFTISRDNAKNTVYLQMNSLKPEDTAVYYCNTDWRGDPELYDYWGQGTQVTVSS	low polyreactivity
QVQLVESGGGLVQAGGSLRLSCAASGSTFYRNAMGWYRQAPGKERELVAVITERGGNTYYADSVKGRFTISRDNAKNTVYLQMNSLKPEDTAVYYCNKQGFVDRGRYRYYWGQGTQVTVSS	high polyreactivity
QVQLVESGGGLVQAGGSLRLSCAASGSTFYRYAMGGYRPAPGKEREFVAAISGSGGSTRYADSVKGRFTISRDNAKNTVYLQMNSLKPEDTAVYYCAARSRYGYITFDYWGQGTQVTVSS	high polyreactivity
QVQLVESGGGLVQAGGSLRLSCAASGSTFYRYAMGWYRPAPGKERELVAAITSAGSTNYADSVKGRFTISRDNAKNTVYLQMNSLKPEDTAVYYCAKDLTRWGYNEYDYWGQGSQVTVSS	low polyreactivity
QVQLVESGGGLVQAGGSLRLSCAASGSTFYRYAMGWYRQAPGKEREFVAAISGSGGSTRYADSVKGRFTISRDNAKNTVYLQMNSLKPEDTAVYYCAARSRDGYITFDYWGQGTQVTVSS	high polyreactivity
QVQLVESGGGLVQAGGSLRLSCAASGSTFYRYAMGWYRQAPGKERELVAAISSDGTTYYADSVKGRFTISRDNAKNTVYLQMNCLNPVDTAVYYCAKERSRYYPYDYWGQGTQVTVSS	high polyreactivity
QVQLVESGGGLVQAGGSLRLSCAASGSTFYRYAMGWYRQAPGKERELVAAISSGGRTYYADSVKGRFTISRDNAKNTVYLQMNSLKPEDTAVYYCATSWTFRQGYNYWGQGTQVTVSS	high polyreactivity
QVQLVESGGGLVQAGGSLRLSCAASGSTFYRYAMGWYRQAPGKERELVAAISSSGGSTYYADSVKGRFTISRDNAKNTVYLQMNSLKPEDTAVYYCNADVHSQYDYWGQGTQVTVSS	low polyreactivity
QVQLVESGGGLVQAGGSLRLSCAASGSTFYRYAMGWYRQAPGKERELVAAISTRSGSTYYADSVKGRFTISRDNAKNTVYLQMNSLKPEDTAVYYCAADGHKKTARKYYYWGQGTEVTVSS	low polyreactivity
QVQLVESGGGLVQAGGSLRLSCAASGSTFYRYAMGWYRQAPGKERELVAAISWDGGRTYYADSVKGRFTISRDNAKNTVYLQMNSLKPEDTAVYYCNARSSQYLGRYDYWGQGTQVTVSS	high polyreactivity
QVQLVESGGGLVQAGGSLRLSCAASGSTFYRYAMGWYRQAPGKERELVARIRLSGTSTYYADSVKGRFTISRDNAKNTVYLQMNSLKPEDTAVYYCAAELYSRNWRSQYDYWGQGSQVTVSS	high polyreactivity
QVQLVESGGGLVQAGGSLRLSCAASGSTFYRYAMGWYRQAPGKERELVATIRSSGDSTNYADSVKGRFTISRDNAKNTVYLQMNSLKPEDTAVYYCAKYGKYTWRQGGYWGQGTQVTVSS	high polyreactivity
QVQLVESGGGLVQAGGSLRLSCAASGSTFYRYAMGWYRQAPGKETELVAAITWRGGSTYYADSVKGRFTISRDNAKNTVYLQMNSLKPEDTAVYYCAAAKYRRGTRYYYWGQCTQVTVSS	high polyreactivity
QVQLVESGGGLVQAGGSLRLSCAASGSTFYRYPMGWYRQAPGKEREFVAAISGSGGSTRYADSVKGRFTISRDNAKKTVYLQMNSLKPEDTAVYYCAARSRYGYITFDYWGQGTQVTVSS	high polyreactivity
QVQLVESGGGLVQAGGSLRLSCAASGSTFYSNAMGWYRQAPGKERELVAGISGSGGSTYYADSVKGRFTISRDNAKNTVYLQMNSLKPEDTAVYYCNARKTRSYFRFDSWGQGTQVTVSS	low polyreactivity
QVQLVESGGGLVQAGGSLRLSCAASGSTFYSNVMGWYRQAPGKERELVAAISRSGGSTYYADSVKGRFTISRDNAKNTVYLQMNSLKPEDTAVYYCAAEREVGDAYDYWGQGTQVTVSS	high polyreactivity
QVQLVESGGGLVQAGGSLRLSCAASGSTFYSYAMGWYRQAPGKDRELVAAISSSSGTTYYADSVKGRFSISRDNAKTTVYLQMNSLKPEDTAVYYCNRGRRYSHKYDYWGQGTQVTVSS	high polyreactivity
QVQLVESGGGLVQAGGSLRLSCAASGSTFYSYAMGWYRQAPGKEREFVAAIRYSGGRTYADSVKGRFTISRDNAKNTVYLQMNSLKPEDTAVYYCAAVYYSYRWPYDYWGQGTQVTVSS	high polyreactivity
